Reference: patent US20110020369A1 (SCHERING, published 2011)

T1: human TSLPR on Ba/F3-hTSLPR-hIL7Ra cells (human, UniProt Q9HC73 23-371)
T1 sequence (looked up): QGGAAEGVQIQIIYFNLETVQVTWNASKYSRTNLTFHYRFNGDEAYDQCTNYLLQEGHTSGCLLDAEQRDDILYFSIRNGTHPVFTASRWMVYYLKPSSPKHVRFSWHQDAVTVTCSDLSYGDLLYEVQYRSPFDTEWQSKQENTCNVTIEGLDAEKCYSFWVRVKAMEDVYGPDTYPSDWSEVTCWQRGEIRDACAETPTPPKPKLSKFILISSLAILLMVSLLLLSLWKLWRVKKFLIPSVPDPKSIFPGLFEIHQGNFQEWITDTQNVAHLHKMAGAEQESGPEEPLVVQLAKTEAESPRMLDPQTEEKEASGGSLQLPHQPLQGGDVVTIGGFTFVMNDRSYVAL

T2: hTSLPR-ECTO-His (human)
T2 chain: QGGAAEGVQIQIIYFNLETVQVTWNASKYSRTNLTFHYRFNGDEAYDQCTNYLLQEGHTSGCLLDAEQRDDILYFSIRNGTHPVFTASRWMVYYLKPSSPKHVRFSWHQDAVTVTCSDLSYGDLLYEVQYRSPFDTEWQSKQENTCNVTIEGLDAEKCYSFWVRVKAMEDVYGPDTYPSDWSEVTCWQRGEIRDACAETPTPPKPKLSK


Columns and labels:
[1] = target: T1, human TSLPR on Ba/F3-hTSLPR-hIL7Ra cells; assay: cell-based or functional assay
cTSLPR-Ig [2] = target: T3, cTSLPR-Ig (cynomolgus monkey); assay: SPR BIAcore T100, cyTSLPR-hIg amine-coupled on CM5, antibody as analyte, bivalent analyte model, n = 2
T3 construct: also called cyTSLP R-hIg P749; Mam-Trans[FlagPreProTrypsin]DELTA2_NHP[Ig]
Procedure: (§1) The kinetic binding activities of the mouse anti human TSLPR antibody 13H5, chimeric anti-human TSLPR 13H5 antibody, rat anti-human TSLPR antibody 18B3, and mouse anti-human TSLPR antibody 70E8 against both human (hu) and cynomolgus monkey (cyno) TSLPR were measured by surface plasmon resonance using a BIAcore T100 system (BIAcore AB, Upsalla, Sweden). Approximately 70RUs of […] were immobilized via amine coupling chemistry onto a Sensor Chip CM5 (Research grade, BR-1006-68). HBS-EP buffer (BR-1006-69) was used as the running buffer with a flow rate of 30 μL/min. Antibodies at varying concentrations ranging from 0.01 to 600 nM were injected over the immobilized hu or cyno TSLP surfaces at a flow rate of 30 μL/min. Following each injection cycle the CM5 chip surface was regenerated using a series of solutions (10 mM Glycine pH 1.5 and 25 mM NaOH respectively) at a flow rate of 75 μL/min.
(§2) Background subtraction binding sensorgrams were used for analyzing the rate constant of association (ka) and dissociation (kd), and the equilibrium dissociation constant KD. The resulting data sets shown in Table 5 were fitted with a bivalent analyte model using the BlAevaluation software (version 1.0).

hTSLPR-ECTO-His = target: T2, hTSLPR-ECTO-His; assay: ELISA, plate coated with TSLPR 50 ng/well, HRP goat anti-mouse detection
Procedure: (§3) The ELISA measures the EC50 of certain mouse anti-TSLPR antibodies generated according to Example 2 are reported on Table 4. The antibodies were purified from hybridoma supernatants, and his-hTSLPR or cTSLPR-Ig was used to determine binding affinity.
(§4) Coating of plates was performed as follows: TSLPR (50 ng per well) in PBS was incubated at 4° C. overnight. Plates were washed with 1 cycle (3 washes/cycle) on a Molecular Devices plate washer. Antibody was then titrated across a row of eight wells in the range of 3000 ng/mL to […] using serial 3-fold dilutions and incubated for 60 min. at 25° C. Plates were washed for 1 cycle, HRP-goat anti-mouse) (1:2,000 dilution) was added at 0.05 mL/well and incubated for 60 min at 25° C. Plates were washed for 1 cycles. ABTS substrate was added at 0.05 mL/well and incubated 10 min at 25 C. Plates read at) or A_{405 nm}. [0223]

cTSLPR-Ig [3] = target: T3, cTSLPR-Ig; assay: as above
Procedure: as §3, §4

[4] = target: cynomolgus TSLPR on Ba/F3-cTSLPR-cIL7Ra cells (cynomolgus monkey); assay: cell-based or functional assay
cTSLPR-Ig [5] = target: T3, cTSLPR-Ig; assay: SPR BIAcore T100, cyTSLPR-hIg amine-coupled on CM5, antibody as analyte, bivalent analyte model, n = 6
Procedure: as §1, §2

Row | Binder | Avg IC50, Ba/F3-huTSLPR proliferation [1] [ng/mL] | IC50 Assay I, Ba/F3-huTSLPR proliferation [1] [ng/mL] | IC50 Assay II, Ba/F3-huTSLPR proliferation [1] [ng/mL] | IC50 Assay III, Ba/F3-huTSLPR proliferation [1] [ng/mL] | Kd (cTSLPR-Ig [2]) [nM] | koff (cTSLPR-Ig [2]) [s⁻¹] | kon (cTSLPR-Ig [2]) [M⁻¹ s⁻¹] | EC50 (hTSLPR-ECTO-His) [µg/mL] | EC50 (cTSLPR-Ig [3]) [µg/mL] | Avg IC50, Ba/F3-cyTSLPR proliferation [4] [ng/mL] | IC50 Assay I, Ba/F3-cyTSLPR proliferation [4] [ng/mL] | IC50 Assay II, Ba/F3-cyTSLPR proliferation [4] [ng/mL] | IC50 Assay III, Ba/F3-cyTSLPR proliferation [4] [ng/mL] | Avg IC50, inhibition of hTSLP-induced proliferation of Ba/F3-huTSLPR cells [1] [ng/mL] | Kd (cTSLPR-Ig [5]) [nM] | koff (cTSLPR-Ig [5]) [s⁻¹] | kon (cTSLPR-Ig [5]) [M⁻¹ s⁻¹]
1 | mouse anti-human TSLPR antibody 70E8 (antibody, mouse IgG1, V domains shown, Mouse IgG1/kappa from hybridoma; also called m70E8; LB55.70E8.1A8) VH: DVQLQESGPDLVKPSQSLSLTCTVTNYSITSGYSWPWIRQFPGNKLEWLGYIHSSGRTNYNPSLKSRISITRDTSKNQFFLQLNSVTPEDTATYYCARSQLGLVFFAYWGQGTLVTVSA VL: DIVMTQSQKFMSTSVGDRVSVTCKASQSVGANVAWYQQIPGHSPKVLIYSASYRFSGVPDRFTGSGSGTDFTLTISNVQSEDLAEYFCQQYNSYPYTFGGGTKLEIRR | 44.6 | 44.2 | 48.9 | 40.7 | – | – | – | – | 0.958 | > 50000 | ~55000 | ~90000 | ~90000 | – | – | – | –
2 | mouse antibody 4G8 (antibody, mouse IgG1, V domains shown, Mouse IgG1/kappa from hybridoma; also called m4G8; LB55.4G8.2A6) VH: QVQLKQSGPGLVQPSQSLSITCTVSGFSLTIYGLHWVRQSPGKGLEWLGVIWRGGSTDYNAAFMSRLRITKDNSKSQVFFKMDSLQADDTAIYYCAKPYYDYDGNWYFDVWGAGTTVTVSS VL: DIVMTQSQKFMSTSVGDRVSVTCKASQNVGTNVAWYQKKSGQSPKPLIYSASSHCSEVPDRFTGSGSGTDFTLTINNVQSEDLAEYFCQQYNRYPLTFGTGTKLEVRR | 262 | 292 | 202 | 291 | – | – | – | 0.0059 | 0.081 | – | – | – | – | – | – | – | –
3 | mouse antibody 54A11 (antibody, mouse IgG2a, V domains shown, Mouse IgG2a/kappa from hybridoma; also called m54A11; LB55.54A11.3D6) VH: EVQLQQSGPELVKPRASVKISCKASGYSFTGYYIHWVKQSHVKSLEWIGRINPYNGATIYNPNFKDKASLTVDKSSSTAFMEVHSLTSEDSAVYYCARSYGYVNYFDYWGQGTTLTVSS VL: EIVLTQSPATLSVTPGDSVSLSCRASQSISNNLHWYHQKSHESPRLLIKFGFQSISGIPSRFSGSGSGTDFTLSINSVETEDFGMYFCQQTNSWLTFGAGTKLELKR | 178 | 211 | 132 | 191 | – | – | – | 0.0458 | 0.0075 | 138 | 125 | 153 | 137 | – | – | – | –
4 | mouse anti human TSLPR antibody 13H5 (antibody, mouse IgG1, V domains shown, Mouse IgG1/kappa purified from hybridoma supernatant; also called m13H5; LB55.13H5.2C3) VH: QVLLKQSGPSLVQPSQSLSITCTVSGFSLSRYGVHWVRQSPGKGLEWLGVIWRSGSTDYNAAFMSRLSITQDNSKSQVFFNMNSLQSDDSAIYYCAKKAFYVMDYWGQGTSVTVSS VL: DIQMTQTTSSLSASLGDRVTISCRASQDISIYLNWYQQKPDGTVKLLIYYTSRLHSGVPSRFSGSGSGTNFSLTITNLEEEDIATYFCQQGNTLPWTFGGGTKLEIKR | – | 12.7 | 14 | 9.7 | – | – | – | – | > 0.001 | 12.9 | 10.4 | 14.8 | 13.4 | 12.1 | 0.089 | 7.1e-05 | 800000
5 | mouse antibody 49A5 (antibody, mouse IgG1, V domains shown, Mouse IgG1/kappa from hybridoma; also called m49A5; LB55.49A5.2F9) VH: QVQLKQSGPGLVQPSQSLSITCTVSGFSLTTYGVHWVRQSPGKGLEWLGVIWRGGNTAYNPAFMSRLSITKDNSKSQVFFKMNSLQADDTAIYHCAKKSYYGYHAMGYWGQGTSVTVSS VL: DIQMTQTTSSLSASLGDRVTINCRASQDISNYLNWYQQNPDGTVKLLIYYTSRLHSGVPSRFSGSGSGTDYSLTISNLEQEDIATYFCQQANTLPWTFGGGTKLEIKR | 127 | 143 | 108 | 131 | – | – | – | 0.0417 | 0.0059 | 231 | 202 | 246 | 246 | – | – | – | –
6 | chimeric anti-human TSLPR 13H5 antibody (antibody, V domains shown, also called chim 13H5; Chimeric 13H5; not shown: human IgG1 heavy chain constant region (CH1-hinge-CH2-CH3); human kappa light chain constant domain (CL domain)) VH: QVLLKQSGPSLVQPSQSLSITCTVSGFSLSRYGVHWVRQSPGKGLEWLGVIWRSGSTDYNAAFMSRLSITQDNSKSQVFFNMNSLQSDDSAIYYCAKKAFYVMDYWGQGTSVTVSS VL: DIQMTQTTSSLSASLGDRVTISCRASQDISIYLNWYQQKPDGTVKLLIYYTSRLHSGVPSRFSGSGSGTNFSLTITNLEEEDIATYFCQQGNTLPWTFGGGTKLEIKR | – | – | – | – | 0.374 | 0.000172 | 460000 | – | – | – | – | – | – | – | – | – | –

Second part, the binder after the results:

Row | Avg IC50, Ba/F3-huTSLPR proliferation [1] [ng/mL] | IC50 Assay I, Ba/F3-huTSLPR proliferation [1] [ng/mL] | IC50 Assay II, Ba/F3-huTSLPR proliferation [1] [ng/mL] | IC50 Assay III, Ba/F3-huTSLPR proliferation [1] [ng/mL] | Kd (cTSLPR-Ig [2]) [nM] | koff (cTSLPR-Ig [2]) [s⁻¹] | kon (cTSLPR-Ig [2]) [M⁻¹ s⁻¹] | EC50 (hTSLPR-ECTO-His) [µg/mL] | EC50 (cTSLPR-Ig [3]) [µg/mL] | Avg IC50, Ba/F3-cyTSLPR proliferation [4] [ng/mL] | IC50 Assay I, Ba/F3-cyTSLPR proliferation [4] [ng/mL] | IC50 Assay II, Ba/F3-cyTSLPR proliferation [4] [ng/mL] | IC50 Assay III, Ba/F3-cyTSLPR proliferation [4] [ng/mL] | Avg IC50, inhibition of hTSLP-induced proliferation of Ba/F3-huTSLPR cells [1] [ng/mL] | Kd (cTSLPR-Ig [5]) [nM] | koff (cTSLPR-Ig [5]) [s⁻¹] | kon (cTSLPR-Ig [5]) [M⁻¹ s⁻¹] | Binder
7 | 304 | 318 | 259 | 335 | 10.1 | 0.0078 | 770000 | – | – | – | – | – | – | – | – | – | – | rat anti-human TSLPR antibody 18B3 (antibody, V domains shown, Rat monoclonal antibody; also called r18B3; LB1.18B3) VH: EVQLVESGGGLVQPGRSLRLSCVASGFTFNNYWMTWVRQAPGKGLEWVASITDTSGRTYYPDSVKGRFTISRDHAKSTLYLQMNSLRPEDTATYYCTKTLGGIPRDWGQGVMVTVSS VL: NIQLTQSPSLLSASVGDRVTLSCKGSQNINNYLAWYQQKLGEAPKLLIFKTNILQTGIPLRFSGSGSGTDYTLTISSLHCEDLATYYCYQFNNGFTFGPGTKLELKR
8 | 20.3 | 19.5 | 18.8 | 22.7 | – | – | – | 0.0059 | 0.153 | – | – | – | – | – | – | – | – | mouse antibody 54C11 (antibody, mouse IgG2a, V domains shown, Mouse IgG2a/kappa from hybridoma; also called m54C11; LB55.54C11.3G11) VH: QVQLQQSGPEVVRPGVSVKISCKGSGFTFTDYAIHWVRQSHAKSLEWIGIIRPSNGNTNCDQKFKDKATMTVDKSSSTAYLDLARLTSEDSAIYYCSRSRVWGGSLAYWGQGTLVTVSA VL: DIVMTQSQKFMSTSVGDRVSVTCKASQNVGTNIAWYQQKPGQSPEALIYSASYRYSGVPDRFTGSGSGTDFTLTITNVQSEDLAEYFCQQYKSYPWTFGGGTKLEIKR
9 | 162 | 174 | 139 | 172 | – | – | – | 0.026 | 0.26 | > 10000 | ~13000 | ~18000 | ~15000 | – | – | – | – | mouse antibody 61C11 (antibody, mouse IgG2a, V domains shown, Mouse IgG2a/kappa from hybridoma; also called m61C11; LB55.61C11.2B1) VH: QAYLQQSGAELVRSGASVKMSCKASGYTFTSYNLHWIKLTPGQGLEWIGYIYPGLNGTLYNQKFRGKATLTADTSSSTAYMQISSLTSEDSAVYFCARSDYGKAWFAYWGRGTLVTVSA VL: DILLTQSPAILSVSPGERVSFSCRASQSIATKIHWYQQRTDHSPRLLIQLGSESISGIPSRFSGSGSGTDFTFTINSVESEDIAVYYCQQSNRYPYTFGGGTKLEVKR
